The text below walks through data of patent US20240141042A1 (INNATE PHARMA, published 2024).

The target of one experiment is T1, NKp46 mutant 6 (human, UniProt O76036 22-304).
T1 construct: Expressed in transfected HEK293T cells
T1 chain: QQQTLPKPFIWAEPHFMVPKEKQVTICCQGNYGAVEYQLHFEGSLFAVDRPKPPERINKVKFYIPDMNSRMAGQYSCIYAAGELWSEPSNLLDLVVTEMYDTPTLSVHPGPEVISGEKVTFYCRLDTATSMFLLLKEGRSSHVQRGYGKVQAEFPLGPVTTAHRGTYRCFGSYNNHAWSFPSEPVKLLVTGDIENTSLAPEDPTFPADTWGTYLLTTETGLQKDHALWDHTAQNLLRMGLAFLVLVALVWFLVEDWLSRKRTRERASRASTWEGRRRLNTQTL
Nature of the experiment: flow cytometry on HEK293T cells transfected with NKp46 mutant 6 (R101A, V102A), antibody titrated 0.001-1 ug/ml. (In general: Flow cytometry measures light scatter and fluorescence of single cells or particles in a stream.)

In the next experiment the target is T2, NKp46 mutant Supp6 (human, UniProt O76036 22-304).
T2 construct: Expressed in transfected HEK293T cells; also called supplementary mutant Supp6
T2 chain: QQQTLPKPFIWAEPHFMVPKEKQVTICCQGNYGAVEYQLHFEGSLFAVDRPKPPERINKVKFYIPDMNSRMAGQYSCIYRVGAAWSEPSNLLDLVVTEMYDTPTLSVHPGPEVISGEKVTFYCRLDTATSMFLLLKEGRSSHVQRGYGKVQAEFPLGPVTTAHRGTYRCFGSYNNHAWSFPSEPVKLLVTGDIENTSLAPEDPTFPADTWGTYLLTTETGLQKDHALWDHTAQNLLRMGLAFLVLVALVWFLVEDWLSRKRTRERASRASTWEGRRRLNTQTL
The experiment can be described thus: flow cytometry on HEK293T cells transfected with NKp46 mutant Supp6 (E104A, L105A; printed 'Mutant S6'), antibody titrated 0.001-1 ug/ml.

Another experiment concerns the target T3, NKp46 mutant Supp8 (human, UniProt O76036 22-304).
T3 construct: Expressed in transfected HEK293T cells; also called supplementary mutant Supp8
T3 chain: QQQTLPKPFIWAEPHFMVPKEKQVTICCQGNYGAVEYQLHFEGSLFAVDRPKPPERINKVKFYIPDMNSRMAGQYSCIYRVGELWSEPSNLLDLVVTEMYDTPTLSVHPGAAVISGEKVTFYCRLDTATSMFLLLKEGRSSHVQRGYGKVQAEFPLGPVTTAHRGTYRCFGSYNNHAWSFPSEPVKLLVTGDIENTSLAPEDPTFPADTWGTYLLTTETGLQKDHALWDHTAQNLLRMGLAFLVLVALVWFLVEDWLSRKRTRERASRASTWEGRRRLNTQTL
Nature of the experiment: flow cytometry on HEK293T cells transfected with NKp46 mutant Supp8 (P132A, E133A; printed 'Mutant S8'), antibody titrated 0.001-1 ug/ml.

The target of experiment [1] is T4, human NKp46 expressed at the cell surface (human, UniProt O76036 22-304).
T4 construct: Wild-type NKp46 on cells (transfected cell lines or NK cells); also called cell line expressing the human NKp46 construct; NKp46 cell line
Nature of the experiment: flow cytometry on HEK293T cells transfected with wild-type NKp46, antibody titrated 0.001-1 ug/ml.

The next experiment concerns the target T5, NKp46 mutant 19 (human, UniProt O76036 22-304).
T5 construct: Expressed in transfected HEK293T cells
T5 chain: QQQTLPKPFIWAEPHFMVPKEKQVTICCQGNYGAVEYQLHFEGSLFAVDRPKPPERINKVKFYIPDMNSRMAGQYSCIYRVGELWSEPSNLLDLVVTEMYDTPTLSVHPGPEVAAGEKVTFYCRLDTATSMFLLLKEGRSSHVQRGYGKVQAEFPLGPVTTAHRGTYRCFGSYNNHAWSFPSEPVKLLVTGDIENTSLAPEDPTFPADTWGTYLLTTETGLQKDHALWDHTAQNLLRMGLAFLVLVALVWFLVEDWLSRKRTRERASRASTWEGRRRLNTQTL
The experiment can be described thus: flow cytometry on HEK293T cells transfected with NKp46 mutant 19 (I135A, S136A), antibody titrated 0.001-1 ug/ml.

For a further experiment, the target named is T6, NKp46 mutant 2 (human, UniProt O76036 22-304).
T6 construct: Expressed in transfected HEK293T cells
T6 chain: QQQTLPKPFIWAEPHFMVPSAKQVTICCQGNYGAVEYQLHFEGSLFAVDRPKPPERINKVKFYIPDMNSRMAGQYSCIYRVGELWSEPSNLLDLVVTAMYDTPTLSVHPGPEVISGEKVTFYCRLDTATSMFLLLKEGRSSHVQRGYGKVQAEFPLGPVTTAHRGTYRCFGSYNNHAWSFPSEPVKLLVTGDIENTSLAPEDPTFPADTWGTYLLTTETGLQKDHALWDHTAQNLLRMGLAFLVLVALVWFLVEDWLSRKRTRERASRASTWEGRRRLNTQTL
Nature of the experiment: flow cytometry on HEK293T cells transfected with NKp46 mutant 2 (K41S, E42A, E119A), antibody titrated 0.001-1 ug/ml. As for the experimental part:
All the anti-NKp46 antibodies were tested for their binding to each mutant by flow cytometry. A first experiment was performed to determine antibodies that lose their binding to one or several mutants at one concentration (10 μg/ml).

Another experiment has as its target T7, NKp46 mutant Supp7 (human, UniProt O76036 22-304).
T7 construct: Expressed in transfected HEK293T cells; also called supplementary mutant Supp7
T7 chain: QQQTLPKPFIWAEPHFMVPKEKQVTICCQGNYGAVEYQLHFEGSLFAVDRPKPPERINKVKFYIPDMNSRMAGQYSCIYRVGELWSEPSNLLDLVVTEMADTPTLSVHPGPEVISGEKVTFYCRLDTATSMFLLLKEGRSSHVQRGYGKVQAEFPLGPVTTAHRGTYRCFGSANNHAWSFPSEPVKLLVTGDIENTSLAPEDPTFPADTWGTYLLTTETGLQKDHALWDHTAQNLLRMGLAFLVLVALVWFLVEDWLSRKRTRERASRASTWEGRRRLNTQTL
Nature of the experiment: flow cytometry on HEK293T cells transfected with NKp46 mutant Supp7 (Y121A, Y194A; printed 'Mutant S7'), antibody titrated 0.001-1 ug/ml.

Experiment [2] addresses T8, Human NKp46 recombinant proteins (human, UniProt O76036 22-258).
T8 construct: also called recombinant human NKp46 proteins
The experiment can be described thus: SPR, antibody captured on Protein-A chip, human NKp46 injected, 1:1 kinetic model.

In experiment [3] the target is T4, human NKp46 expressed at the cell …. The experiment can be described thus: flow cytometry on HEK293T cells transfected with wild-type NKp46, antibody titrated 0.001-1 ug/ml. This is another data set of the same source.
Another experiment deals with T9, human FcRn (Example 10) (human, UniProt P55899 24-297; P61769 21-119, limits assumed).
T9 construct: Construct not described; Beta-2-microglobulin is not mentioned; also called recombinant FcRn proteins
The experiment can be described thus: SPR, FcRn immobilized on CM5, SCK/Two state reaction. On the procedure:
SPR measurements were performed on a Biacore T100 apparatus (Biacore GE Healthcare) at 25° C. In all Biacore experiments Acetate Buffer (50 mM Acetate pH5.6, 150 mM NaCl, 0.1% surfactant p20) and HBS-EP+ (Biacore GE Healthcare) served as running buffer and regeneration buffer respectively. Sensorgrams were analyzed with Biacore T100 Evaluation software. Recombinant mouse FcRn was purchase from R&D Systems.
Recombinant FcRn proteins were immobilized covalently to carboxyl groups in the dextran layer on a Sensor Chip CM5. The chip surface was activated with EDC/NHS (N-ethyl-N′-(3-dimethylaminopropyl) carbodiimidehydrochloride and N-hydroxysuccinimide (Biacore GE Healthcare)). FcRn proteins were diluted to 10 μg/ml in coupling buffer (10 mM acetate, pH 5.6) and injected until the appropriate immobilization level was reached (i.e. 2500 RU). Deactivation of the remaining activated groups was performed using 100 mM ethanolamine pH 8 (Biacore GE Healthcare).
A general note: In SPR one partner is held on a chip, and binding of the other changes the refractive index at the surface.

Experiment [4] deals with T8, Human NKp46 recombinant proteins. The experiment can be described thus: SPR, bispecific captured on Protein-A chip, human NKp46 injected, 1:1 kinetic model. On the procedure:
SPR measurements were performed on a Biacore T100 apparatus (Biacore GE Healthcare) at 25° C. In all Biacore experiments HBS-EP+(Biacore GE Healthcare) and NaOH 10 mM served as running buffer and regeneration buffer respectively. Sensorgrams were analyzed with Biacore T100 Evaluation software. Protein-A was purchase from (GE Healthcare). Human NKp46 recombinant proteins were cloned, produced and purified at Innate Pharma.
Protein-A proteins were immobilized covalently to carboxyl groups in the dextran layer on a Sensor Chip CM5. The chip surface was activated with EDC/NHS (N-ethyl-N′-(3-dimethylaminopropyl) carbodiimidehydrochloride and N-hydroxysuccinimide (Biacore GE Healthcare)). Protein-A was diluted to 10 μg/ml in coupling buffer (10 mM acetate, pH 5.6) and injected until the appropriate immobilization level was reached (i.e. 2000 RU). Deactivation of the remaining activated groups was performed using 100 mM ethanolamine pH 8 (Biacore GE Healthcare).
Monovalent affinity study was done following a regular Capture-Kinetic protocol recommended by the manufacturer (Biacore GE Healthcare kinetic wizard). Seven serial dilutions of human NKp46 recombinant proteins, ranging from 6.25 to 400 nM were sequentially injected over the captured Bi-Specific antibodies and allowed to dissociate for 10 min before regeneration. The entire sensorgram sets were fitted using the 1:1 kinetic binding model.

Where two headings read alike, the source gives them in different places.

T9 sequence (P55899 24-297 limits assumed, form in doubt, chain 1 of 2): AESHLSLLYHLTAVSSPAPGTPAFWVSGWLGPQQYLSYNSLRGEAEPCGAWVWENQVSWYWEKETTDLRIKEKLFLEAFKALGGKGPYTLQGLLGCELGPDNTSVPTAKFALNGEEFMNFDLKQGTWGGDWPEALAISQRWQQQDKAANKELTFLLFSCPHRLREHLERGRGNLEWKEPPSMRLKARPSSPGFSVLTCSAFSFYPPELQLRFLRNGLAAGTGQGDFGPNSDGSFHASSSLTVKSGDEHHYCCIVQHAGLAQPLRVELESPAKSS
T9 sequence (P61769 21-119 limits assumed, form in doubt, chain 2 of 2): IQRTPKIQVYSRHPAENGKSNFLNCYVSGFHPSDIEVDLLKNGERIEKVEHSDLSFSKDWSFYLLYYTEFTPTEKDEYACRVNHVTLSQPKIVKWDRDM

B1: NKp46-6 (antibody, V domains shown)
VH: QVQLQQPGSVLVRPGASVKLSCKASGYTFTSSWMHWAKQRPGQGLEWIGHIHPNSGISNYNEKFKGKATLTVDTSSSTAYVDLSSLTSEDSAVYYCARGGRFDDWGAGTTVTVSS
VL: DIVMTQSPATLSVTPGDRVSLSCRASQSISDYLHWYQQKSHESPRLLIKYASQSISGIPSRFSGSGSGSDFTLSINSVEPEDVGVYYCQNGHSFLMYTFGGGTKLEIK
notes: not in the list MOLECULES as an antibody; also called antibody NKp46-6; monoclonal antibody NKp46-6
B1: the binding result (with NKp46 mutant 6; with NKp46 mutant Supp6; with NKp46 mutant Supp8; in [1]; with NKp46 mutant 19; in the experiment with NKp46 mutant 2) was “binds” each time. Besides, the binding result with NKp46 mutant Supp7 is recorded as “binds”.

B2: NKp46-3 IgG1 (antibody, V domains shown)
VH: EVQLQQSGPELVKPGASVKISCKTSGYTFTEYTMHWVKQSHGKSLEWIGGISPNIGGTSYNQKFKGKATLTVDKSSSTAYMELRSLTSEDSAVYYCARRGGSFDYWGQGTTLTVSS
VL: DIVMTQSPATLSVTPGDRVSLSCRASQSISDYLHWYQQKSHESPRLLIKYASQSISGIPSRFSGSGSGSDFTLSINSVEPEDVGVYYCQNGHSFPLTFGAGTKLELK
notes: Chimeric full-length human IgG1; also called NKp46-3 antibody as a full-length human IgG1
Regarding B2, in experiment [2], the Kd (in general, the free concentration of one partner at which half of the binding sites on the other are occupied at equilibrium, for simple one-to-one binding) stood at 20 nM; the koff – broadly, the first-order rate constant of dissociation – stood at 0.00433 s⁻¹; the kon (as a rule, the rate constant with which the complex forms) was determined as 222000 M⁻¹ s⁻¹. Moreover, the binding result with NKp46 mutant 6 is “binds”. Besides, the binding result with NKp46 mutant 2 is “binds”. In addition, the binding result in the experiment with NKp46 mutant Supp7 was “binds”.

B3: NKp46-4 (antibody, V domains shown)
VH: QVQLQQSAVELARPGASVKMSCKASGYTFTSFTMHWVKQRPGQGLEWIGYINPSSGYTEYNQKFKDKTTLTADKSSSTAYMQLDSLTSDDSAVYYCVRGSSRGFDYWGQGTLVTVSA
VL: DIQMIQSPASLSVSVGETVTITCRASENIYSNLAWFQQKQGKSPQLLVYAATNLADGVPSRFSGSGSGTQYSLKINSLQSEDFGIYYCQHFWGTPRTFGGGTKLEIK
notes: also called Antibody NKp46-4
Take B3: the binding result (in experiment [3]; in the experiment with NKp46 mutant 19) was “binds” in each case.

B4: CD19-F5-NKp46-3 (bispecific antibody, human IgG1, kappa)
chain 1: not shown
chain 2: not shown
chain 3: DIVMTQSPATLSVTPGDRVSLSCRASQSISDYLHWYQQKSHESPRLLIKYASQSISGIPSRFSGSGSGSDFTLSINSVEPEDVGVYYCQNGHSFPLTFGAGTKLELKASTKGPSVFPLAPSSKSTSGGTAALGCLVKDYFPEPVTVSWNSGALTSGVHTFPAVLQSSGLYSLSSVVTVPSSSLGTQTYICNVNHKPSNTKVDKRVEPKSCDKTH
notes: Heterotrimer with dimeric Fc: first (170), second (169) and third (171) chain
B4: in the experiment with human FcRn (Example 10), the affinity, expressed as Kd, was 2.6 nM. In experiment [4], the Kd was 67 nM, the koff was found to be 0.0051 s⁻¹ and the kon amounted to 75600 M⁻¹ s⁻¹.

B5: CD19-F6-NKp46-3 (bispecific antibody, human IgG1, kappa)
chain 1: not shown
chain 2: not shown
chain 3: DIVMTQSPATLSVTPGDRVSLSCRASQSISDYLHWYQQKSHESPRLLIKYASQSISGIPSRFSGSGSGSDFTLSINSVEPEDVGVYYCQNGHSFPLTFGAGTKLELKASTKGPSVFPLAPSSKSTSGGTAALGCLVKDYFPEPVTVSWNSGALTSGVHTFPAVLQSSGLYSLSSVVTVPSSSLGTQTYICNVNHKPSNTKVDKRVEPKSCDKTH
notes: As F5 but with N297S: first (173), second (172) and third (174) chain
As for B5, in the experiment with human FcRn (Example 10), binding was put at a Kd of 6 nM. Further, in [4], the Kd was 63 nM, the koff is 0.00503 s⁻¹ and the kon worked out at 79300 M⁻¹ s⁻¹.

B6: NKp46-2 (antibody, human IgG1, V domains shown)
VH: EVQLQESGPGLVKPSQSLSLTCTVTGYSITSDYAWNWIRQFPGNKLEWMGYITYSGSTSYNPSLESRISITRDTSTNQFFLQLNSVTTEDTATYYCARGGYYGSSWGVFAYWGQGTLVTVSA
VL: DIQMTQSPASLSASVGETVTITCRVSENIYSYLAWYQQKQGKSPQLLVYNAKTLAEGVPSRFSGSGSGTQFSLKINSLQPEDFGSYYCQHHYGTPWTFGGGTKLEIK
notes: also called parental human IgG1 chimeric antibody NKp46-2
Consider B6, for which the binding result (with NKp46 mutant Supp8; in experiment [1]; in the experiment with NKp46 mutant 19; with NKp46 mutant 2; with NKp46 mutant Supp7) was “binds” throughout.
